Consider 2 substances from PMC6366860.

For test [1], the target named is murine α-cardiac myosin (filaments) (mouse) (UniProt Q02566). Kind of test: co-sedimentation.
For test [2], the target named is F-actin from rabbit skeletal muscle (rabbit) (UniProt P68135). Kind of test: co-sedimentation.

In the case of “wild-type mouse cMyBP-C C0-C2 (with the N-terminal extension, NTE) (domain or fragment)”, the cosedimentation relative to human C0-C2 in test [1] came to 60%. In test [2], the Kd is 7.9 µM and the stoichiometry N (mol C0-C2/mol actin) is 1.
“mouse short form C0-C2, N-terminal tagged (mSF2), lacking the 8 amino acid NTE (domain or fragment)”: the cosedimentation relative to human C0-C2 in test [1] was 162%.

As a reminder, the Kd is the constant that tells how readily two partners part at equilibrium. Read a high Kd as weaker binding.
